What was measured:
[1] = target: AGP from plasma of patients with hepatocellular carcinoma (HCC-AGP) (human) (UniProt P02763); assay: reversed S2-ELISA: S2 coated at 5 µg/mL, plasma 1:50, detection with antibody 058
[2] = target: desialylated AGP (dsAGP) (human) (UniProt P02763); assay: reversed S2-ELISA: S2 coated at 5 µg/mL, dsAGP 2 µg/ml, detection with antibody 058
[3] = target: AGP from plasma of patients with hepatocellular carcinoma (HCC-AGP) (human) (UniProt P02763); assay: reversed S2-ELISA, HCC-plasma sample against a normal sample (background); 5 µg/ml S2 coating
[4] = target: AGP from plasma of patients with hepatocellular carcinoma (HCC-AGP) (human) (UniProt P02763); assay: standard lectin ELISA: antibody 058 coated, plasma 1:50, biotinylated S2 at 0.25 µg/mL for detection
[5] = target: desialylated AGP (dsAGP) (human) (UniProt P02763); assay: standard lectin ELISA: antibody 058 coated, dsAGP 2 µg/ml, biotinylated S2 at 0.25 µg/mL for detection

S2-peptide (monovalent fucose-binding peptide; recombinant form of Aleuria aurantia lectin comprising only binding site 2) (from UniProt P18891 51-161)
signal to noise ratio [1]: 5.1 | signal to noise ratio [2]: 5.2 | signal to background ratio [3]: 10 | signal to background ratio [4]: 1.05 | signal to background ratio [5]: 1.38

— patent US20200319189A1
